The record followed here is patent US20230235027A1 (US Dept. of Health and Human Services, published 2023).

In test [1] the target is T1, Biotinylated SARS-CoV-2 S protein RBD with a C-terminal AviTag (SARS-CoV-2, UniProt P0DTC2 319-541).
In test [2] the target is T1, Biotinylated SARS-CoV-2 S protein RBD …. Nature of the test: biolayer interferometry (FIG. 7C). (In BLI a coated tip is dipped into the sample, and binding shifts an interference pattern.)
Test [3] has as its target T2, SARS-CoV-2 spike protein receptor binding domain (RBD), recombinant (SARS-CoV-2, UniProt P0DTC2 319-541). Nature of the test: ELISA: coated SARS-CoV-2 RBD, NIH-CoVnb-112 titrated, absorbance 450 nm. Background: An ELISA detects its analyte on a solid surface through an enzyme-linked reagent.
The target of test [4] is T2, SARS-CoV-2 spike protein receptor …. Nature of the test: direct binding to RBD wild type (FIG. 7B); format not described further.
Test [5] deals with T3, SARS-CoV-1 spike protein RBD (SARS-CoV-1, UniProt P59594 306-527).
T3 construct: domain: RBD
Briefly: ELISA: coated SARS-CoV-1 RBD, NIH-CoVnb-112 titrated, absorbance 450 nm.

Test [6] deals with T1, Biotinylated SARS-CoV-2 S protein RBD …. The source holds these as a separate data set.
Test [7] concerns the target T2, SARS-CoV-2 spike protein receptor ….
For test [8] the target is unchanged. Nature of the test: competition ELISA, RBD coated, competitor biotinylated ACE2.
Test [9] has the same target. This is another data set of the same source.
Test [10] has the same target. Nature of the test: kinetic measurement, method not stated; table row prototype RBD.

Where “and” joins values, the source holds several entries; their conditions need not be identical. Equal values may be shown once. Read-outs that look alike come from different tables or passages of the source.

B1: NIH-CoVnb-103 (VHH, not shown: large carriers)
VHH: DVQLQESGGGLVQPGGSLRLSCAASGLTLDYYTIGWFRQAPGKEREGVSCISSSDDSTYYADSVKGRFTISRDNAKNTVYLQMNSLKPEDTAVYYCATAPGTYYKGSYYPMCHYYGMDYWGKGTQVTVSS
B1: in test [1], the equilibrium dissociation constant (Kd) (as a rule, the free concentration of one partner at which half of the binding sites on the other are occupied at equilibrium, for simple one-to-one binding) worked out at 9.43 nM; the off-rate constant (koff) (in general, the first-order rate constant of dissociation) worked out at 0.00286 s⁻¹; the kon – broadly, the second-order rate constant of association – turned out to be 303000 M⁻¹ s⁻¹.

B2: VHH72 (VHH)
VHH: QVQLQESGGGLVQAGGSLRLSCAASGRTFSEYAMGWFRQAPGKEREFVATISWSGGSTYYTDSVKGRFTISRDNAKNTVYLQMNSLKPDDTAVYYCAAAGLGTVVSEWDYDYDYWGQGTQVTVSS
On to B2, for which the binding result in [2] is on record as “binds”.

B3: NIH-CoVnb-108 (VHH, not shown: large carriers)
VHH: DVQLQESGGGLVQPGGSLRLSCAASGFTLDYYAIGWFRQAPGKEREGVSCISNSGGSTYYADSVKGRFTTSRDNAKNTVYLQMNSLKPEDTAVYYCAAVPSTYYSGSYYYTCHPGGMDYWGKGTQVTVSS
In [1], B3 came in with a Kd of 26.6 nM, an off-rate constant (koff) of 0.00109 s⁻¹ and a kon of 40900 M⁻¹ s⁻¹.

B4: NIH-CoVnb-112 (VHH)
VHH: DVQLQESGGGLVQPGGSLRLSCAASGLTLDYYAIGWFRQAPGKEREGVSCISSSDGSTYYADSVKGRFTTSRDNAKNTVYLQMNSLKPEDTAVYYCAAVPSTYYSGTYYYTCHPGGMDYWGKGTQVTVSS
Take B4: in [3], the half-maximal effective concentration (EC50 (read off the curve)) (commonly the concentration needed to bring the measured effect to its halfway point) was approximately 0.01 µg/mL. In addition, the 50% effective concentration (EC50) (usually the midpoint of the concentration-response curve) in [4] was approximately 0.01 µg/mL; in [8] it was 0.02 µg/mL and 1.11 nM. Further, in [5], the binding result is “no binding (tested: about 5 µg/mL)”. Besides, the Kd in test [6] is 4.9 nM; in [7] it was 2.1 nM. For the same molecule, the koff in [6] was found to be 0.000654 s⁻¹; in test [9] it was 0.000295 s⁻¹; in test [10], 0.000236 s⁻¹. The on-rate (kon) stood at 130000 M⁻¹ s⁻¹ in test [6], 141000 M⁻¹ s⁻¹ in test [9] and 223000 M⁻¹ s⁻¹ in test [10].

B5: NIH-CoVnb-109 (VHH, not shown: large carriers)
VHH: DVQLQESGGGLVQSGGSLRLSCAASGFTLDYYAIGWFRQAPGKEREGVSCITNSDGSTYYADSVKGRFTTSRDNAKNTVYLQMNSLKPEDTAVYYCASFPSTYYSGSYYYTCHPGGMDYWGKGTQVTVSS
In test [1], B5 came in with a Kd of 58.5 nM, a koff of 0.00188 s⁻¹ and an association rate constant (kon) of 32100 M⁻¹ s⁻¹.

B6: NIH-CoVnb-113 (VHH)
VHH: DVQLQESGGGLVQPGGSLRLSCAASGLTLDYYAIGWFRQAPGKEREGVSCISSSDGSTYYADSVKGRFTTSRDNAKNTVYLQMNSLKPEDTAVYYCAAVPSTYYSGTYYYTCHPGGMDYWGKGTLVTVSS
In [1], B6 registered a dissociation constant Kd of 8.19 nM, a dissociation rate constant (koff) of 0.000804 s⁻¹ and an on-rate constant (kon) of 98200 M⁻¹ s⁻¹.
